Data on one molecule can be found in publication PMC7616283.

This assay concerns the target human CCR8 (HA-tagged) on stably transfected HEK293 cells (human), P51685. In words: flow cytometry on cells. The settings on record: remark: other sources report otherwise.

Chain of human CCR8 (HA-tagged) on stably transfected HEK293 cells (human), P51685 (P51685 whole entry): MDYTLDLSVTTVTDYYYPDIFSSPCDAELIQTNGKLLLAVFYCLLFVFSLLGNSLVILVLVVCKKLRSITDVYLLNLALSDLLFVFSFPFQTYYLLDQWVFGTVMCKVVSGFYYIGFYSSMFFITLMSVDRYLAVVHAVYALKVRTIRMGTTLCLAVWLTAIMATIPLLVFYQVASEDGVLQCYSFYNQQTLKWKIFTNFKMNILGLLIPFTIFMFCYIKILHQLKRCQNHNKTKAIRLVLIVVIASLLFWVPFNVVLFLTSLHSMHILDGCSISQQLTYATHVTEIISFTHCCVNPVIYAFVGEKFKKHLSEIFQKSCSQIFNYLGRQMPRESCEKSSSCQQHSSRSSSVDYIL

B1: unlabeled human recombinant CCL18, P55774 21-89 (ligand)
chain: AQVGTNKELCCLVYTSWQIPQKFIVDYSETSPQCPKPGVILLTKRGRQICADPNKKWVQKYISDLKLNA
Regarding B1, the IC50 worked out at 4.1 nM.
